Results on three molecules are retold here after US20260125477A1 (BEIJING MABWORKS BIOTECH, published 2026).

The target in assay [1] is T1, human B7-H7/HHLA2 protein, with His tag (MALS verified) (human, UniProt Q9UM44 23-344, limits assumed).
T1 construct: Bought protein
T1 sequence (looked up): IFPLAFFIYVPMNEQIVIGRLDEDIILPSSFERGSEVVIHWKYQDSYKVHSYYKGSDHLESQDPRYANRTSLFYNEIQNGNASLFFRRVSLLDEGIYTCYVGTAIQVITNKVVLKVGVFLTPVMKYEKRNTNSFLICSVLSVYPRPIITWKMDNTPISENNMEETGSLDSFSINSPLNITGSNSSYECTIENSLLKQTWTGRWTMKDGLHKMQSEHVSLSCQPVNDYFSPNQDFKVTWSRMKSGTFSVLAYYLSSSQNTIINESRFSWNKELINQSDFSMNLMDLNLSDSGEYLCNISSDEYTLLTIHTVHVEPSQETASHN
Briefly: SPR (Biacore T200), antibody captured on Protein A chip. As to the method:
(§1) The anti-human B7-H3 antibodies were tested for their binding capability to B7 family proteins by SPR using Biacore T200 biosensor (Biacore, US) provided with a pre-fixed Protein A sensor chip.
(§2) The dissociation was monitored for 600 sec. The data was analyzed using Biacore 8k evaluation software version 3.0, to obtain the binding responses, and the protein concentration-binding response curves were plotted, to determine the cross-reaction of the anti-human B7-H3 antibodies to the B7 family proteins.
For orientation: Surface plasmon resonance follows binding to a sensor surface in real time, without labels.

Assay [2] addresses T2, human B7-2/CD86 protein, with His tag (human, UniProt P42081 26-247, limits assumed).
T2 construct: Bought protein
T2 sequence (looked up): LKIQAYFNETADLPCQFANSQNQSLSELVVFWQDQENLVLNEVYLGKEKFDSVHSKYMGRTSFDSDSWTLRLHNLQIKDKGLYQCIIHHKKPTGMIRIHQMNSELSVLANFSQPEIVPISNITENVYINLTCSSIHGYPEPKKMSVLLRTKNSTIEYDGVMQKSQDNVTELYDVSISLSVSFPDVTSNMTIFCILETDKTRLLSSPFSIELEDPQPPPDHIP
Described as above. As to the method: as §1, §2

The target of assay [3] is T3, human PD-L2/B7-DC protein, with His tag (human, UniProt Q9BQ51 20-219, limits assumed).
T3 construct: Bought protein
T3 sequence (looked up): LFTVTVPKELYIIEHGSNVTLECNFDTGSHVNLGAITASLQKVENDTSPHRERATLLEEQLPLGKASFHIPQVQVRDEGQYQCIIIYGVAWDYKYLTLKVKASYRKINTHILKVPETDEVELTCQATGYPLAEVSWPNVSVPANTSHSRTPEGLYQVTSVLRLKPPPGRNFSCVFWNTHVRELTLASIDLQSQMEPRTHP
Described as above. On the procedure: as §1, §2

Assay [4] addresses T4, human B7-H5/Gi24/VISTA protein, with His tag (MALS verified) (human, UniProt Q9H7M9 33-194).
T4 construct: Bought protein
T4 sequence (looked up): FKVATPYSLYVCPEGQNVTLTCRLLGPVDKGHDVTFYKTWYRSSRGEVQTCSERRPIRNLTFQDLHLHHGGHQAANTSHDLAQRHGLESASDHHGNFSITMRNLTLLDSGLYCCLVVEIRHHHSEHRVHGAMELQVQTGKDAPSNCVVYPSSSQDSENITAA
The assay is described as above. On the procedure: as §1, §2

The target of assay [5] is T5, human PD-L1/B7-H1 protein, with His tag (human, UniProt Q9NZQ7 19-238).
T5 construct: Bought protein
T5 sequence (Q9NZQ7 19-238 limits assumed): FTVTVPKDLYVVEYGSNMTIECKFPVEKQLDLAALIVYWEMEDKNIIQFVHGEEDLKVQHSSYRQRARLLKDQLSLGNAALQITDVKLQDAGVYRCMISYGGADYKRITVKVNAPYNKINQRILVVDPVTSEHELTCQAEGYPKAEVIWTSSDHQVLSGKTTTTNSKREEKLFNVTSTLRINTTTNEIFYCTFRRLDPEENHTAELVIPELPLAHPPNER
The assay is described as above. As to the method:
as §1, §2

In assay [6] the target is T6, human B7-H2/ICOSLG protein, with His tag (human, UniProt O75144 19-258, limits assumed).
T6 construct: Bought protein
T6 sequence (looked up): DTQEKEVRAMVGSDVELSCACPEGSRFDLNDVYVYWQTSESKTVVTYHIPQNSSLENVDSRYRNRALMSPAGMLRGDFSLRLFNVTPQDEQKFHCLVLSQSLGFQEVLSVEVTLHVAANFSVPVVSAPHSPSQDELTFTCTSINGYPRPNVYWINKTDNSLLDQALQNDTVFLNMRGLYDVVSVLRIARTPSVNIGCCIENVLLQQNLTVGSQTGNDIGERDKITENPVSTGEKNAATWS
The description is as above. As to the method: as §1, §2

Assay [7] has as its target T7, recombinant human CD80 protein (human B7-1/CD80 protein, with His tag) (human, UniProt P33681 35-242).
T7 construct: Bought protein
T7 sequence (looked up): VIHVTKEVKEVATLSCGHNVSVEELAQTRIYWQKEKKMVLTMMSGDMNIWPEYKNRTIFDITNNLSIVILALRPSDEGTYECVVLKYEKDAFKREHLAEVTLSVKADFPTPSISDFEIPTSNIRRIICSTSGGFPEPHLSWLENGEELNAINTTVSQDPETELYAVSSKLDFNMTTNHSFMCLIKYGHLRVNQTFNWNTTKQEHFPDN
The assay is described as above. As to the method:
as §1, §2

In assay [8] the target is T8, mouse B7-H3/CD276 protein, with His tag (mouse, UniProt Q8VE98 29-244, limits assumed).
T8 construct: Bought protein
T8 sequence (looked up): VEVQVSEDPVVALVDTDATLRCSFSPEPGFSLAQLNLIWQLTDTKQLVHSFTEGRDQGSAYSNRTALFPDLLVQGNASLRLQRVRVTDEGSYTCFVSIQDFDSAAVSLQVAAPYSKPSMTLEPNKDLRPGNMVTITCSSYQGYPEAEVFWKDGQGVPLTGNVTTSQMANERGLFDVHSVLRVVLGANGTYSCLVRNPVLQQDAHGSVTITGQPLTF
Briefly: SPR (Biacore T200), antibody captured on Protein A chip, His-tagged antigen injected. On the procedure:
The fully human anti-human B7-H3 antibodies were tested for their binding affinity to human B7-H3 (4Ig), human B7-H3 (2Ig), monkey B7-H3 (monkey B7-H3/CD276 protein, with His tag, Cat #: B73-C52Ha, ACROBiosystems) and mouse B7-H3 protein (mouse B7-H3/CD276 protein, with His tag, Cat #: B73-M52H4, ACROBiosystems) by surface plasmon resonance (SPR) using Biacore T200 biosensor (Biacore, US) provided with a pre-fixed Protein A sensor chip. Briefly, the anti-human B7-H3 antibodies (1 μg/mL) were injected to the Biacore T200 biosensor at 10 μL/min for 20 sec, to achieve the desired protein density (100±30 RU).
The data as generated was analyzed using Biacore Insight V2.0.1 5.12933 with the one-to-one Langmuir binding model. The association rate (kₒₙ) and dissociation rate (koff) were obtained at the same time. The affinity was calculated as the quotient of the two kinetic rate constants (KD=koff/kₒₙ).

B1: 10F5 (antibody, human IgG1, kappa, V domains shown)
VH: QVQLVQSGAEVKKPGSSVKVSCKASGGTFSSQAISWVRQAPGQGLEWMGRIIPMLGIGDYAQSFQGRVTITADKSTSTAYLEVSSLGSEDTAVYYCAREGIAALGTNYYYGMDVWGQGTAVTVSS
VL: EIVMTQSPSSVSASVGDRVTITCRASQGISRWLAWYQQKPGKAPKLLIYVASSLQSGVPSRFSGSGSGTDFTLTISSLQPEDFATYYCQQANSFPFTFGPGTKVDIRR
notes: also called Ab10F5
Regarding B1, the binding result in assay [1], in assay [2], in assay [3], in assay [4], in assay [5] and in assay [6] was “no binding (tested: 200 nM)” in each case. Moreover, the binding result in assay [7] was “no binding (tested: 200 nM)”.

B2: 10D7 (antibody, human IgG1, kappa, V domains shown)
VH: QVQLVQSGPGLVKPSETLSLTCTVSGGSISRSSYYWGWIRQPPGKGLEWIGNIFYAGSTYYNPSLKSRVTISVDTSKNQFSLKLSSVTAADTAVYYCARRITGTTGWFDPWGQGTLVTVSS
VL: DIQLTQSPSSLSASVGDRVTITCRASQGIRNDLGWYQQKPGKAPKLLIYAASTLQSGVPSRFSGSGSGTDFTLTISSLQPEDFATYYCLQDYNYPRTFGQGTKVEIKR
notes: also called 10D7-WT; Ab10D7
In the case of B2, the binding result in assay [1], in assay [4], in assay [5] and in assay [7] was “no binding (tested: 200 nM)” throughout.

B3: 6B5 (antibody, human IgG1, kappa, V domains shown)
VH: QVQLVESGPGLVKPSQTLSLTCTVSDGSISSGGYYWSWIRQHPGKGLEWIGYIYYSGGTYYSPSLKSRVTISVDTSKNQFSLKLTSVTAADTAVYYCARRAGYSSSFDSWGQGILVTVSS
VL: EIVLTQSPLSLPVTPGEPASISCRSSQSLLYSNGYTYLDWYLQKPGQSPQFLIYLGFNRASGVPDRFSGSGSGTDFTLKISRVEAEDVGVYYCMQGLQTPYTFGQGTKLEIKR
notes: also called 6B5-WT; Ab6B5
On to B3, for which, in assay [8], the affinity, expressed as Kd, was 274 nM; the koff – broadly, a measure of how fast the partners let go of each other – worked out at 0.0159 s⁻¹; the on-rate constant (kon) (in general, the rate constant with which the complex forms) amounted to 58300 M⁻¹ s⁻¹.
